Laboratory results from patent publication US20230303681A1.

Target: mouse TMEM106B (mouse) (UniProt Q80X71)
Assay: FACS Neuro2a

Row | MFI | Substance
1 | 220 | Negative ctrl #1 (antibody)
2 | 235 | Negative ctrl #2 (antibody)
3 | 216 | Negative ctrl #3 (antibody)
